From publication PMC13381803, “Phage-encoded factor stimulates DNA degradation by the Hna anti-phage defense system” (Nature Communications, 2026) come the findings set out here.

The target in test [1] is 5 A SSB escape mutant E38K (phage 5 A (T7-like podovirus)). Kind of test: native gel or EMSA; native stoichiometry of wild-type 5 A SSB and escape mutants in the absence of DNA; each protein allowed to oligomerize for 1 hour; non-denaturing 4-20% Tris-glycine gel, 4 °C; part of the wild-type sample melted at 95 °C for the monomeric state.
Test [2] addresses phage-encoded single-stranded DNA-binding protein of phage 5 A (5 A SSB), wild type (phage 5 A (T7-like podovirus)). Described as above.
Test [3] deals with Hna with a C-terminal GFP tag. The experiment in a line: fluorescence anisotropy. The conditions noted are these: read off a plot.
The target of test [4] is Hna (helicase-nuclease abortive infection), wild type, Sinorhizobium meliloti. Kind of test: fluorescence anisotropy competition. The conditions noted are these: in the presence of ATP; cold SSB added to the saturated Hna/GFP-SSB heterodimer; value read at the highest cold SSB concentration (about 2e3 nM); lower …; parent: est. 75; read off a plot.
Test [5] addresses 5 A SSB escape mutant E201K (phage 5 A (T7-like podovirus)). The experiment in a line: native gel or EMSA; native stoichiometry of wild-type 5 A SSB and escape mutants in the absence of DNA; each protein allowed to oligomerize for 1 hour; non-denaturing 4-20% Tris-glycine gel, 4 °C; part of the wild-type sample melted at 95 °C for the monomeric state.
The target of test [6] is Hna (helicase-nuclease abortive infection), wild type, Sinorhizobium meliloti (Sinorhizobium meliloti).
Test [7] has as its target 5 A SSB escape mutant E49A (phage 5 A (T7-like podovirus)). The experiment in a line: native gel or EMSA; native stoichiometry of wild-type 5 A SSB and escape mutants in the absence of DNA; each protein allowed to oligomerize for 1 hour; non-denaturing 4-20% Tris-glycine gel, 4 °C; part of the wild-type sample melted at 95 °C for the monomeric state.
The mark [8] stands for this setting: saturating GFP-Hna homodimer, value read at the highest SSB concentration (about 2e4 nM), starting anisotropy about 100-110 mA, lower anisotropy = more …, parent: est. 22.

Turning to “5 A SSB escape mutant E38K (natural protein)”, in test [1], the stoichiometry N was 4.
For the substance “phage-encoded single-stranded DNA-binding protein of phage 5 A (5 A SSB), wild type (natural protein)”, the stoichiometry N in test [2] came out at 2.
Turning to “Hna (helicase-nuclease abortive infection), wild type, Sinorhizobium meliloti T30A; D31A; P34A”, in test [3] (+ATP, GFP-Hna at fixed concentration, value is the plateau of the fitted curve at high cold Hna concentration, parent: est. 98), the response came out at 10 mA.
In the case of “phage-encoded single-stranded DNA-binding protein of phage 5 A (5 A SSB), wild type E201K”, the values for the response in test [4] and in test [3] (setting [8]) were 130 mA and 110 mA, respectively.
In the case of “phage-encoded single-stranded DNA-binding protein of phage 5 A (5 A SSB), wild type E49A”, in test [3] (setting [8]), the response came out at 65 mA.
“5 A SSB escape mutant E201K (natural protein)” had a stoichiometry N in test [5] of 4.
As to “Hna (helicase-nuclease abortive infection), wild type, Sinorhizobium meliloti (enzyme)”, the ssDNA cleavage rate of the Hna dimer mutant (T30A/D31A/P34A) compared to wild-type Hna, capillary electrophoresis in test [6] is more than 10 fold.
Regarding “phage-encoded single-stranded DNA-binding protein of phage 5 A (5 A SSB), wild type E38K”, in test [3] (setting [8]), the response came out at 99 mA.
In test [7], “5 A SSB escape mutant E49A (natural protein)” came in with a stoichiometry N of 2.
